{"source": "paper PMC4598982", "about": "“Impact of Cell-surface Antigen Expression on Target Engagement and Function of an Epidermal Growth Factor Receptor × c-MET Bispecific Antibody*” (The Journal of Biological Chemistry, 2015)", "molecular_target": "the molecule itself", "assay": "split reporter (BiFC, NanoBiT); PathHunter enzyme fragment complementation in the c-MET homodimer U-2 OS cell line; recombinant human HGF serially diluted; 6 h at room temperature; lower levels with bivalent c-MET mAb, even lower levels with JNJ-61186372 and monovalent c-MET BsAbs", "data": [{"protein": "c-MET(1–960) C-terminally fused to a complementary inactive fragment of β-galactosidase (receptor, UniProt P08581 25-960, looked up, signal peptide in the construct; membrane localisation of the construct was checked by flow cytometry; In the homodimer cell line two copies carry the two complementary β-gal fragments; also called hepatocyte growth factor receptor; HGF receptor; source: U-2 OS cells, stably transfected, on cells) ECKEALAKSEMNVNMKYQLPNFTAETPIQNVILHEHHIFLGATNYIYVLNEEDLQKVAEYKTGPVLEHPDCFPCQDCSSKANLSGGVWKDNINMALVVDTYYDDQLISCGSVNRGTCQRHVFPHNHTADIQSEVHCIFSPQIEEPSQCPDCVVSALGAKVLSSVKDRFINFFVGNTINSSYFPDHPLHSISVRRLKETKDGFMFLTDQSYIDVLPEFRDSYPIKYVHAFESNNFIYFLTVQRETLDAQTFHTRIIRFCSINSGLHSYMEMPLECILTEKRKKRSTKKEVFNILQAAYVSKPGAQLARQIGASLNDDILFGVFAQSKPDSAEPMDRSAMCAFPIKYVNDFFNKIVNKNNVRCLQHFYGPNHEHCFNRTLLRNSSGCEARRDEYRTEFTTALQRVDLFMGQFSEVLLTSISTFIKGDLTIANLGTSEGRFMQVVVSRSGPSTPHVNFLLDSHPVSPEVIVEHTLNQNGYTLVITGKKITKIPLNGLGCRHFQSCSQCLSAPPFVQCGWCHDKCVRSEECLSGTWTQQICLPAIYKVFPNSAPLEGGTRLTICGWDFGFRRNNKFDLKKTRVLLGNESCTLTLSESTMNTLKCTVGPAMNKHFNMSIIISNGHGTTQYSTFSYVDPVITSISPKYGPMAGGTLLTLTGNYLNSGNSRHISIGGKTCTLKSVSNSILECYTPAQTISTEFAVKLKIDLANRETSIFSYREDPIVYEIHPTKSFISGGSTITGVGKNLNSVSVPRMVINVHEAGRNFTVACQHRSNSEIICCTTPSLQQLNLQLPLKTKAFFMLDGILSKYFDLIYVHNPVFKPFEKPVMISMGNENVLEIKGNDIDPEAVKGEVLKVGNKSCENIHLHSEAVLCTVPNDLLKLNSELNIEWKQAISSTVLGKVIVQPDQNFTGLIAGVVSISTALLLLLGFFLWLKKRKQ", "values": [{"measurement": "EC50 of HGF for c-MET homodimerization", "value": 3.21, "unit": "nM"}]}]}
